T1: FcγRIIb extracellular domain with C-terminal His tag (human, UniProt P31994 43-217)
T1 construct: extracellular domain; expressed in FreeStyle293 cells; analyte in the Biacore assay; also called FcgRIIb; 2b; not shown: His tag at the C terminus
T1 sequence (looked up): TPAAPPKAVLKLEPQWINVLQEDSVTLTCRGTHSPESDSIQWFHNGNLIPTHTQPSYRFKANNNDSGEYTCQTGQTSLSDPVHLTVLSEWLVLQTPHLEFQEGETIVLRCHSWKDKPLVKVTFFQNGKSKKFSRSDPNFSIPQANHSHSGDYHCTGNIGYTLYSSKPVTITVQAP


molecular target: T1, FcγRIIb extracellular domain with …; experiment: SPR (Biacore), captured antibody, FcγRIIb analyte; binding relative to GpH7-B3/GpL16-k0 = 100

Binder | Ho/Con_2b
GpH7-B3 variant L235_20W/GpL16-k0 (antibody, human IgG1, kappa, homodimerized; mutation in both H chains; also called Ho Ab L235_20W) heavy: not shown light: DIVMTQSPLSLPVTPGEPASISCQASESLVHSNRNTYLHWYLQKPGQSPQLLIYKVSNRFSGVPDRFSGSGSGTDFTLKISRVEAEDVGVYYCSQNTHVPPTFGQGTKVEIERTVAAPSVFIFPPSDEQLKSGTASVVCLLNNFYPREAKVQWKVDNALQSGNSQESVTEQDSKDSTYSLSSTLTLSKADYEKHKVYACEVTHQGLSSPVTKSFNRGEC | 116 % of control
GpH7-B3 variant L328_02A/GpL16-k0 (antibody, human IgG1, kappa, homodimerized; mutation in both H chains; also called Ho Ab L328_02A) heavy: not shown light: DIVMTQSPLSLPVTPGEPASISCQASESLVHSNRNTYLHWYLQKPGQSPQLLIYKVSNRFSGVPDRFSGSGSGTDFTLKISRVEAEDVGVYYCSQNTHVPPTFGQGTKVEIERTVAAPSVFIFPPSDEQLKSGTASVVCLLNNFYPREAKVQWKVDNALQSGNSQESVTEQDSKDSTYSLSSTLTLSKADYEKHKVYACEVTHQGLSSPVTKSFNRGEC | 117 % of control
GpH7-B3 variant P238_09D/GpL16-k0 (antibody, human IgG1, kappa, homodimerized; mutation in both H chains; also called Ho Ab P238_09D) heavy: not shown light: DIVMTQSPLSLPVTPGEPASISCQASESLVHSNRNTYLHWYLQKPGQSPQLLIYKVSNRFSGVPDRFSGSGSGTDFTLKISRVEAEDVGVYYCSQNTHVPPTFGQGTKVEIERTVAAPSVFIFPPSDEQLKSGTASVVCLLNNFYPREAKVQWKVDNALQSGNSQESVTEQDSKDSTYSLSSTLTLSKADYEKHKVYACEVTHQGLSSPVTKSFNRGEC | 207 % of control
GpH7-B3 variant P331_15Y/GpL16-k0 (antibody, human IgG1, kappa, homodimerized; mutation in both H chains; also called Ho Ab P331_15Y) heavy: not shown light: DIVMTQSPLSLPVTPGEPASISCQASESLVHSNRNTYLHWYLQKPGQSPQLLIYKVSNRFSGVPDRFSGSGSGTDFTLKISRVEAEDVGVYYCSQNTHVPPTFGQGTKVEIERTVAAPSVFIFPPSDEQLKSGTASVVCLLNNFYPREAKVQWKVDNALQSGNSQESVTEQDSKDSTYSLSSTLTLSKADYEKHKVYACEVTHQGLSSPVTKSFNRGEC | 111 % of control
GpH7-B3 variant P238_15Y/GpL16-k0 (antibody, human IgG1, kappa, homodimerized; mutation in both H chains; also called Ho Ab P238_15Y) heavy: not shown light: DIVMTQSPLSLPVTPGEPASISCQASESLVHSNRNTYLHWYLQKPGQSPQLLIYKVSNRFSGVPDRFSGSGSGTDFTLKISRVEAEDVGVYYCSQNTHVPPTFGQGTKVEIERTVAAPSVFIFPPSDEQLKSGTASVVCLLNNFYPREAKVQWKVDNALQSGNSQESVTEQDSKDSTYSLSSTLTLSKADYEKHKVYACEVTHQGLSSPVTKSFNRGEC | 114 % of control
GpH7-B3 variant P238_04F/GpL16-k0 (antibody, human IgG1, kappa, homodimerized; mutation in both H chains; also called Ho Ab P238_04F) heavy: not shown light: DIVMTQSPLSLPVTPGEPASISCQASESLVHSNRNTYLHWYLQKPGQSPQLLIYKVSNRFSGVPDRFSGSGSGTDFTLKISRVEAEDVGVYYCSQNTHVPPTFGQGTKVEIERTVAAPSVFIFPPSDEQLKSGTASVVCLLNNFYPREAKVQWKVDNALQSGNSQESVTEQDSKDSTYSLSSTLTLSKADYEKHKVYACEVTHQGLSSPVTKSFNRGEC | 209 % of control
GpH7-B3 variant L328_13S/GpL16-k0 (antibody, human IgG1, kappa, homodimerized; mutation in both H chains; also called Ho Ab L328_13S) heavy: not shown light: DIVMTQSPLSLPVTPGEPASISCQASESLVHSNRNTYLHWYLQKPGQSPQLLIYKVSNRFSGVPDRFSGSGSGTDFTLKISRVEAEDVGVYYCSQNTHVPPTFGQGTKVEIERTVAAPSVFIFPPSDEQLKSGTASVVCLLNNFYPREAKVQWKVDNALQSGNSQESVTEQDSKDSTYSLSSTLTLSKADYEKHKVYACEVTHQGLSSPVTKSFNRGEC | 147 % of control

The next lines start with the values.

Ho/Con_2b | Binder
104 % of control | GpH7-B3 variant T335_07I/GpL16-k0 (antibody, human IgG1, kappa, homodimerized; mutation in both H chains; also called Ho Ab T335_07I) heavy: not shown light: DIVMTQSPLSLPVTPGEPASISCQASESLVHSNRNTYLHWYLQKPGQSPQLLIYKVSNRFSGVPDRFSGSGSGTDFTLKISRVEAEDVGVYYCSQNTHVPPTFGQGTKVEIERTVAAPSVFIFPPSDEQLKSGTASVVCLLNNFYPREAKVQWKVDNALQSGNSQESVTEQDSKDSTYSLSSTLTLSKADYEKHKVYACEVTHQGLSSPVTKSFNRGEC
185 % of control | GpH7-B3 variant S267_19Q/GpL16-k0 (antibody, human IgG1, kappa, homodimerized; mutation in both H chains; also called Ho Ab S267_19Q) heavy: not shown light: DIVMTQSPLSLPVTPGEPASISCQASESLVHSNRNTYLHWYLQKPGQSPQLLIYKVSNRFSGVPDRFSGSGSGTDFTLKISRVEAEDVGVYYCSQNTHVPPTFGQGTKVEIERTVAAPSVFIFPPSDEQLKSGTASVVCLLNNFYPREAKVQWKVDNALQSGNSQESVTEQDSKDSTYSLSSTLTLSKADYEKHKVYACEVTHQGLSSPVTKSFNRGEC
187 % of control | GpH7-B3 variant S267_06M/GpL16-k0 (antibody, human IgG1, kappa, homodimerized; mutation in both H chains; also called Ho Ab S267_06M) heavy: not shown light: DIVMTQSPLSLPVTPGEPASISCQASESLVHSNRNTYLHWYLQKPGQSPQLLIYKVSNRFSGVPDRFSGSGSGTDFTLKISRVEAEDVGVYYCSQNTHVPPTFGQGTKVEIERTVAAPSVFIFPPSDEQLKSGTASVVCLLNNFYPREAKVQWKVDNALQSGNSQESVTEQDSKDSTYSLSSTLTLSKADYEKHKVYACEVTHQGLSSPVTKSFNRGEC
100 % of control | GpH7-B3 variant P331_16H/GpL16-k0 (antibody, human IgG1, kappa, homodimerized; mutation in both H chains; also called Ho Ab P331_16H) heavy: not shown light: DIVMTQSPLSLPVTPGEPASISCQASESLVHSNRNTYLHWYLQKPGQSPQLLIYKVSNRFSGVPDRFSGSGSGTDFTLKISRVEAEDVGVYYCSQNTHVPPTFGQGTKVEIERTVAAPSVFIFPPSDEQLKSGTASVVCLLNNFYPREAKVQWKVDNALQSGNSQESVTEQDSKDSTYSLSSTLTLSKADYEKHKVYACEVTHQGLSSPVTKSFNRGEC
108 % of control | GpH7-B3 variant S239_03V/GpL16-k0 (antibody, human IgG1, kappa, homodimerized; mutation in both H chains; also called Ho Ab S239_03V) heavy: not shown light: DIVMTQSPLSLPVTPGEPASISCQASESLVHSNRNTYLHWYLQKPGQSPQLLIYKVSNRFSGVPDRFSGSGSGTDFTLKISRVEAEDVGVYYCSQNTHVPPTFGQGTKVEIERTVAAPSVFIFPPSDEQLKSGTASVVCLLNNFYPREAKVQWKVDNALQSGNSQESVTEQDSKDSTYSLSSTLTLSKADYEKHKVYACEVTHQGLSSPVTKSFNRGEC
104 % of control | GpH7-B3 variant S324_06M/GpL16-k0 (antibody, human IgG1, kappa, homodimerized; mutation in both H chains; also called Ho Ab S324_06M) heavy: not shown light: DIVMTQSPLSLPVTPGEPASISCQASESLVHSNRNTYLHWYLQKPGQSPQLLIYKVSNRFSGVPDRFSGSGSGTDFTLKISRVEAEDVGVYYCSQNTHVPPTFGQGTKVEIERTVAAPSVFIFPPSDEQLKSGTASVVCLLNNFYPREAKVQWKVDNALQSGNSQESVTEQDSKDSTYSLSSTLTLSKADYEKHKVYACEVTHQGLSSPVTKSFNRGEC
111 % of control | GpH7-B3 variant P331_20W/GpL16-k0 (antibody, human IgG1, kappa, homodimerized; mutation in both H chains; also called Ho Ab P331_20W) heavy: not shown light: DIVMTQSPLSLPVTPGEPASISCQASESLVHSNRNTYLHWYLQKPGQSPQLLIYKVSNRFSGVPDRFSGSGSGTDFTLKISRVEAEDVGVYYCSQNTHVPPTFGQGTKVEIERTVAAPSVFIFPPSDEQLKSGTASVVCLLNNFYPREAKVQWKVDNALQSGNSQESVTEQDSKDSTYSLSSTLTLSKADYEKHKVYACEVTHQGLSSPVTKSFNRGEC
103 % of control | GpH7-B3 variant S337_16H/GpL16-k0 (antibody, human IgG1, kappa, homodimerized; mutation in both H chains; also called Ho Ab S337_16H) heavy: not shown light: DIVMTQSPLSLPVTPGEPASISCQASESLVHSNRNTYLHWYLQKPGQSPQLLIYKVSNRFSGVPDRFSGSGSGTDFTLKISRVEAEDVGVYYCSQNTHVPPTFGQGTKVEIERTVAAPSVFIFPPSDEQLKSGTASVVCLLNNFYPREAKVQWKVDNALQSGNSQESVTEQDSKDSTYSLSSTLTLSKADYEKHKVYACEVTHQGLSSPVTKSFNRGEC
175 % of control | GpH7-B3 variant S239_10E/GpL16-k0 (antibody, human IgG1, kappa, homodimerized; mutation in both H chains; also called Ho Ab S239_10E) heavy: not shown light: DIVMTQSPLSLPVTPGEPASISCQASESLVHSNRNTYLHWYLQKPGQSPQLLIYKVSNRFSGVPDRFSGSGSGTDFTLKISRVEAEDVGVYYCSQNTHVPPTFGQGTKVEIERTVAAPSVFIFPPSDEQLKSGTASVVCLLNNFYPREAKVQWKVDNALQSGNSQESVTEQDSKDSTYSLSSTLTLSKADYEKHKVYACEVTHQGLSSPVTKSFNRGEC

Reference: patent US20180155451A1 (published 2018)
